From patent publication US11433099B2, “Immunotherapy with B*08 restricted peptides and combination of peptides against cancers and related methods” (Immatics Biotechnologies GmbH, priority 2018, dated 2022)

Target: HLA-B*08:01 (Homo sapiens, UniProt P01889)
Experiment: MHC binding assay (UV-ligand exchange, beta2m ELISA)
Settings: MHC class I binding score; binding to HLA-B*08:01 ranged by peptide exchange yield (UV-ligand exchange, β2m ELISA)
Excerpt: Candidate peptides for T cell based therapies according to the present invention were further tested for their MHC binding capacity (affinity). The individual peptide-MHC complexes were produced by UV-ligand exchange, where a UV-sensitive peptide is cleaved upon UV-irradiation and exchanged with the peptide of interest as analyzed. Only peptide candidates that can effectively bind and stabilize the peptide-receptive MHC molecules prevent dissociation of the MHC complexes. To determine the yield of the exchange reaction, an ELISA was performed based on the detection of the light chain (β2m) of stabilized MHC complexes. The assay was performed as generally described in Rodenko et al. (Rodenko et al., 2006).
96 well MAXISorp plates (NUNC) were coated over night with 2 ug/ml streptavidin in PBS at room temperature, washed 4× and blocked for 1 h at 37° C. in 2% BSA containing blocking buffer. Refolded HLA-A*02:01/MLA-001 monomers served as standards, covering the range of 15-500 ng/ml. Peptide-MHC monomers of the UV-exchange reaction were diluted 100-fold in blocking buffer. Samples were incubated for 1 h at 37° C., washed four times, incubated with 2 ug/ml HRP conjugated anti-β2m for 1 h at 37° C., washed again and detected with TMB solution that is stopped with […]. Absorption was measured at 450 nm. Candidate peptides that show a high exchange yield (preferably higher than 50%, most preferred higher than 75%) are generally preferred for a generation and production of antibodies or fragments thereof, and/or T cell receptors or fragments thereof, as they show sufficient avidity to the MHC molecules and prevent dissociation of the MHC complexes.

Row | Substance | Peptide exchange
1 | 2 (QIMPKAGL; listed as Homo sapiens) [compound 2] | +++ (50% = +++)
2 | 4 (QVMPKTGL; listed as Homo sapiens) [compound 4] | ++ (20% = ++)
3 | 6 (NRQKRFVL; listed as Homo sapiens) [compound 6] | ++ (20% = ++)
4 | 7 (AARLRPAL; listed as Homo sapiens) [compound 7] | ++ (20% = ++)
5 | 12 (DFYLRSSAF; listed as Homo sapiens) [compound 12] | +++ (50% = +++)
6 | 14 (ELILKRCL; listed as Homo sapiens) [compound 14] | +++ (50% = +++)
7 | 15 (LLKKIEHA; listed as Homo sapiens) [compound 15] | ++ (20% = ++)
8 | 16 (NRKPRTPF; listed as Homo sapiens) [compound 16] | ++ (20% = ++)
9 | 17 (LLILKTVL; listed as Homo sapiens) [compound 17] | +++ (50% = +++)
10 | 23 (DIKKTNESL; listed as Homo sapiens) [compound 23] | ++ (20% = ++)
11 | 24 (DLVLKRCL; listed as Homo sapiens) [compound 24] | ++++ (75% = ++++)
12 | 26 (DARCKLAEL; listed as Homo sapiens) [compound 26] | ++ (20% = ++)
13 | 28 (DPKSRLKSL; listed as Homo sapiens) [compound 28] | ++ (20% = ++)
14 | 30 (DLQKKAQAL; listed as Homo sapiens) [compound 30] | ++ (20% = ++)
15 | 32 (NPYLKLVL; listed as Homo sapiens) [compound 32] | ++ (20% = ++)
16 | 39 (DAKSKIEQI; listed as Homo sapiens) [compound 39] | ++ (20% = ++)
17 | 43 (DLKKLVDSL; listed as Homo sapiens) [compound 43] | +++ (50% = +++)
18 | 44 (HLTNRVLSL; listed as Homo sapiens) [compound 44] | +++ (50% = +++)
19 | 46 (DLRNKIIAA; listed as Homo sapiens) [compound 46] | +++ (50% = +++)
20 | 50 (TLRLLVAAL; listed as Homo sapiens) [compound 50] | +++ (50% = +++)
21 | 51 (ERRVKVSSL; listed as Homo sapiens) [compound 51] | +++ (50% = +++)

Row | Substance | Peptide exchange
22 | 52 (ELILKHSL; listed as Homo sapiens) [compound 52] | +++ (50% = +++)
23 | 53 (DLRKLKRQL; listed as Homo sapiens) [compound 53] | ++ (20% = ++)
24 | 54 (DLSRRDVSL; listed as Homo sapiens) [compound 54] | ++ (20% = ++)
25 | 55 (VLLSRRTAL; listed as Homo sapiens) [compound 55] | ++ (20% = ++)
26 | 56 (ILCGSRKMPL; listed as Homo sapiens) [compound 56] | ++ (20% = ++)
27 | 59 (FDFRGKTKVF; listed as Homo sapiens) [compound 59] | ++ (20% = ++)
28 | 61 (SIKKELVVL; listed as Homo sapiens) [compound 61] | ++ (20% = ++)
29 | 64 (FILGREAGAL; listed as Homo sapiens) [compound 64] | ++ (20% = ++)
30 | 65 (NLLMRNVL; listed as Homo sapiens) [compound 65] | ++ (20% = ++)
31 | 67 (DMNTKRAIHTL; listed as Homo sapiens) [compound 67] | ++ (20% = ++)
32 | 69 (ELARQRLL; listed as Homo sapiens) [compound 69] | ++ (20% = ++)
33 | 70 (RPKGTPPL; listed as Homo sapiens) [compound 70] | ++ (20% = ++)
34 | 72 (LPLAHHIQL; listed as Homo sapiens) [compound 72] | +++ (50% = +++)
35 | 73 (MFPARGVPL; listed as Homo sapiens) [compound 73] | ++ (20% = ++)
36 | 77 (LPKLPVPPL; listed as Homo sapiens) [compound 77] | +++ (50% = +++)
37 | 79 (GLARIYSF; listed as Homo sapiens) [compound 79] | ++ (20% = ++)
38 | 81 (MYRKEQYL; listed as Homo sapiens) [compound 81] | ++ (20% = ++)
39 | 84 (YITRQFVQF; listed as Homo sapiens) [compound 84] | ++ (20% = ++)
40 | 85 (QKPRKKKL; listed as Homo sapiens) [compound 85] | ++ (20% = ++)
41 | 87 (QILQHHVL; listed as Homo sapiens) [compound 87] | +++ (50% = +++)
42 | 88 (MLLCLSLEL; listed as Homo sapiens) [compound 88] | ++ (20% = ++)

Row | Substance | Peptide exchange
43 | 90 (TIGLGLHSL; listed as Homo sapiens) [compound 90] | ++ (20% = ++)
44 | 92 (TLKAMVQAW; listed as Homo sapiens) [compound 92] | +++ (50% = +++)
45 | 93 (LMKEKIQEM; listed as Homo sapiens) [compound 93] | +++ (50% = +++)
46 | 94 (DQLLRHVM; listed as Homo sapiens) [compound 94] | +++ (50% = +++)
47 | 95 (SRNPRGFFL; listed as Homo sapiens) [compound 95] | ++ (20% = ++)
48 | 96 (RPAGVFEL; listed as Homo sapiens) [compound 96] | ++ (20% = ++)
49 | 97 (EPVTKAEM; listed as Homo sapiens) [compound 97] | +++ (50% = +++)
50 | 98 (EPVNTNVVL; listed as Homo sapiens) [compound 98] | ++ (20% = ++)
51 | 99 (NVKIRFLE; listed as Homo sapiens) [compound 99] | ++ (20% = ++)
52 | 100 (VLLMGPLHL; listed as Homo sapiens) [compound 100] | ++ (20% = ++)
53 | 101 (FAFEKLIQF; listed as Homo sapiens) [compound 101] | +++ (50% = +++)
54 | 102 (IMKKIRESY; listed as Homo sapiens) [compound 102] | +++ (50% = +++)
55 | 103 (IANLRVKNI; listed as Homo sapiens) [compound 103] | +++ (50% = +++)
56 | 104 (FAFGEPREL; listed as Homo sapiens) [compound 104] | ++ (20% = ++)
57 | 105 (APLKMLALV; listed as Homo sapiens) [compound 105] | ++ (20% = ++)
58 | 106 (HLHLLETSI; listed as Homo sapiens) [compound 106] | ++ (20% = ++)
59 | 107 (LPKGLKDWQA; listed as Homo sapiens) [compound 107] | ++ (20% = ++)
60 | 108 (RSYYHPTNL; listed as Homo sapiens) [compound 108] | ++ (20% = ++)
61 | 109 (IPASHPVLTL; listed as Homo sapiens) [compound 109] | ++ (20% = ++)
62 | 110 (DAMTKHTL; listed as Homo sapiens) [compound 110] | +++ (50% = +++)
